B1: Protein CBFA2T1 (Homo sapiens), Q06455 (parent)
chain: MISVKRNTWRALSLVIGDCRKKGNFEYCQDRTEKHSTMPDSPVDVKTQSRLTPPTMPPPPTTQGAPRTSSFTPTTLTNGTSHSPTALNGAPSPPNGFSNGPSSSSSSSLANQQLPPACGARQLSKLKRFLTTLQQFGNDISPEIGERVRTLVLGLVNSTLTIEEFHSKLQEATNFPLRPFVIPFLKANLPLLQRELLHCARLAKQNPAQYLAQHEQLLLDASTTSPVDSSELLLDVNENGKRRTPDRTKENGFDREPLHSEHPSKRPCTISPGQRYSPNNGLSYQPNGLPHPTPPPPQHYRLDDMAIAHHYRDSYRHPSHRDLRDRNRPMGLHGTRQEEMIDHRLTDREWAEEWKHLDHLLNCIMDMVEKTRRSLTVLRRCQEADREELNYWIRRYSDAEDLKKGGGSSSSHSRQQSPVNPDPVALDAHREFLHRPASGYVPEEIWKKAEEAVNEVKRQAMTELQKAVSEAERKAHDMITTERAKMERTVAEAKRQAAEDALAVINQQEDSSESCWNCGRKASETCSGCNTARYCGSFCQHKDWEKHHHICGQTLQAQQQGDTPAVSSSVTPNSGAGSPMDTPPAATPRSTTPGTPSTIETTPR

Variants of: B1
Conditions: with son_human SON

effect of a mutation on the interaction | Variant
disrupting interaction strength | C515S

Variants of: B1
Conditions: with son_mouse Son

effect of a mutation on the interaction | Variant
disrupting interaction strength | C515S

Source: IntAct's records for PubMed 18952841
